According to US20200207850A1 (MacroGenics, published 2020):

T1: B7-H3 on A498 and JIMT-1 target cells (UniProt Q5ZPR3 29-534, limits assumed)
T1 sequence (looked up): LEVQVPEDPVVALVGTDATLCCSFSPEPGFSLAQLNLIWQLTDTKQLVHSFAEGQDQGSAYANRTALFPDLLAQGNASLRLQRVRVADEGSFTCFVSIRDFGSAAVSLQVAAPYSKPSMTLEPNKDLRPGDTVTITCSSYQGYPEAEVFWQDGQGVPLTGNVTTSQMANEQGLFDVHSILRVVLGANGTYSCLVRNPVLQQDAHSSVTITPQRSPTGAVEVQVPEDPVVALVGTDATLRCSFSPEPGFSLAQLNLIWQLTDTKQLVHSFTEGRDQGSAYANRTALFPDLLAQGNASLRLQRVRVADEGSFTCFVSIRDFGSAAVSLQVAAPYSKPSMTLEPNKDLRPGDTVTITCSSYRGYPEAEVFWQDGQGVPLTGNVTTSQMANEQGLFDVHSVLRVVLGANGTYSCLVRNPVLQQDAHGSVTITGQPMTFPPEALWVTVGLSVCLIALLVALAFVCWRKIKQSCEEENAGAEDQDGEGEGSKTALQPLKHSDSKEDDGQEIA


What was measured:
human CD3 = human CD3 (human, UniProt P07766 23-126); test: binding kinetics sensorgram (RU against time), panel labelled hCD3
[1] = molecular target: T1, B7-H3 on A498 and JIMT-1 target cells; test: cell-based or functional assay
[2] = molecular target: T2, CD8 on human T cells (PBMC) (human, UniProt P01732 22-235); test: flow cytometry on human PBMC, CD5+/CD4- gated cells (bear CD8 and CD3), detection anti-human Fc (MFI)
T2 construct: whole, on cells; The CD8+ (CD5+ CD4-) cells also carry CD3; also called CD5+ CD4- gated PBMC; CD8+ T cells

[3] = molecular target: T2, CD8 on human T cells (PBMC); test: flow cytometry, binding to human CD5+/CD4- cells (bear CD8 and CD3) (MFI)
[4] = molecular target: T1, B7-H3 on A498 and JIMT-1 target cells; test: cell-based or functional assay; remark: listed apart in the source
[5] = molecular target: T2, CD8 on human T cells (PBMC); test: flow cytometry on human PBMC, CD5+/CD4- gated cells (bear CD8 and CD3), detection PE anti-human Fc (MFI)
Procedure: 50 μL (4×10⁶ cells/mL) of well-mixed cells in FACS buffer containing 0.01% sodium azide were then added into corresponding wells and mixed thoroughly using a pipette. The plate was incubated in the dark for about 45 minutes at 2-8° C. At the end of the incubation, the cells were washed twice by adding 300 μL of FACS buffer to each well, centrifuging the plate at 1,200 rpm for 5 minutes, and discarding the supernatant. The cell pellets were re-suspended in 100 μL mixture of PE-conjugated goat anti-Human Fcγ 1:500 diluted, CD5-APC and CD4-PerCP5.5 in FACS buffer containing 0.01% sodium azide, and incubated in the dark for about 45 minutes at 2-8° C. At the end of the incubation, the cells were washed, re-suspended with FACS buffer, and analyzed with a BD Caliber flow cytometer. Cells were gated to CD5⁺ CD4⁺ (FIG. 9A) or CD5⁺ CD4⁻ (FIG. 9B).

[6] = molecular target: HIV env on Jurkat 522 FY cells (HIV); test: cell-based or functional assay
[7] = molecular target: T2, CD8 on human T cells (PBMC); test: flow cytometry on human PBMC, CD5+/CD4- gated cells (bear CD8 and CD3), detection anti-human Fc (MFI); remark: listed apart in the source
Procedure: Human blood was lysed with ACK lysing buffer, washed 2× with PBS and re-suspended in FACS buffer contained 10% Human AB serum and incubated at room temperature for 20 minutes. Thereafter, the cells were pelleted by centrifugation and re-suspended (4×10⁶ cells/mL) in FACS buffer. 50 μL of serial titrated Tri-Specific Binding Molecules were added into wells of a 96-well deep plate. 50 μL of the cells (4×10⁶ cells/mL) well-mixed cells in FACS buffer containing 0.01% sodium azide were then added into corresponding wells and mixed thoroughly using a pipette. The plate was incubated in the dark for about 45 minutes at 2-8° C. At the end of incubation, the cells were washed twice by adding 300 μL of FACS buffer to each well, the plate was centrifuged at 1,200 rpm for 5 minutes, and the supernatant was discarded. The cell pellets were re-suspended in 100 μL mixture of goat anti-Human IgG Fcγ-PE, CD5-APC and CD4-PerCP5.5 prepared in FACS buffer containing 0.01% sodium azide, and the cells were incubated in the dark for about 45 minutes at 2-8° C. At the end of the incubation, the cells were washed, re-suspended with FACS buffer, and analyzed with a BD Caliber flow cytometer.

[8] = molecular target: HIV env on Jurkat 522 FY cells (HIV); test: cell-based or functional assay; remark: listed apart in the source

T2 sequence (P01732 22-235): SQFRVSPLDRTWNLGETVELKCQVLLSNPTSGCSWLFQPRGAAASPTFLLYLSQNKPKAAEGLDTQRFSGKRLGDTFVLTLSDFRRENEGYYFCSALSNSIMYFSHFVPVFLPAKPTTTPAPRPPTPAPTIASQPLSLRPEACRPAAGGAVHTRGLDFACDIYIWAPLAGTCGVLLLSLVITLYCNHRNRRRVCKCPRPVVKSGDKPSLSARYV
Chain of human CD3 (P07766 23-126): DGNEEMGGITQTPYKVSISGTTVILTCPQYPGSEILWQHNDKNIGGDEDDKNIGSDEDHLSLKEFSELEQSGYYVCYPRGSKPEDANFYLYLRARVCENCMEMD

Binder	EC50, nM, % cytotoxicity (LDH), Jurkat Cells 522FY, CD4 effector cells [6] [nM]	EC50, nM, % cytotoxicity (LDH), Jurkat Cells 522FY, CD8 effector cells [6] [nM]	EC50, nM, % cytotoxicity (LDH), Jurkat Cells 522FY, Pan T effector cells [6] [nM]	EC50 (read off the curve) [7] [nM]	EC50 nM, % cytotoxicity (LDH), Jurkat Cells 522FY, E/T = 5:1 [8] [nM]	EC50 nM, % cytotoxicity (LDH), Jurkat Cells 522FY, E/T = 10:1 [8] [nM]	further results
DART molecule having the CD3 mAb 2 Fast Binding Domain (bispecific antibody, V domains shown, also called anti-human CD3 mAb 2 Fast) VH: EVQLVESGGGLVQPGGSLRLSCAASGFTFSTYAMNWVRQAPGKGLEWVGRIRSKYNNYATYYADSVKGRFTISRDDSKNSLYLQMNSLKTEDTAVYYCVRHKNFGNSYVTWFAYWGQGTLVTVSS VL: QAVVTQEPSLTVSPGGTVTLTCRSSTGAVTTSNYANWVQQKPGQAPRGLIGGTNKRAPWTPARFSGSLLGGKAALTITGAQAEDEADYYCALWYSNLWVFGGGTKLTVLG							Kd (human CD3): 13.9 nM
B7-H3 mAb 1/CD3 mAb 2/CD8 mAb 1 Tri-Specific Binding Molecule (other, Four different polypeptide chains covalently complexed, with Fc Domain) chain 1: DIQMTQSPSSLSASVGDRVTITCRASQDISNYLNWYQQKPGKAPKLLIYYTSRLHSGVPSRFSGSGSGTDFTLTISSLQPEDIATYYCQQGNTLPPTFGGGTKLEIKGGGSGGGGEVQLVESGGGLVQPGGSLRLSCAASGFTFSTYAMNWVRQAPGKGLEWVGRIRSKYNNYATYYADSVKDRFTISRDDSKNSLYLQMNSLKTEDTAVYYCVRHGNFGNSYVSWFAYWGQGTLVTVSSGGCGGGEVAALEKEVAALEKEVAALEKEVAALEKGGGDKTHTCPPCPAPEAAGGPSVFLFPPKPKDTLMISRTPEVTCVVVDVSHEDPEVKFNWYVDGVEVHNAKTKPREEQYNSTYRVVSVLTVLHQDWLNGKEYKCKVSNKALPAPIEKTISKAKGQPREPQVYTLPPSREEMTKNQVSLWCLVKGFYPSDIAVEWESNGQPENNYKTTPPVLDSDGSFFLYSKLTVDKSRWQQGNVFSCSVMHEALHNHYTQKSLSLSPGK chain 2: QAVVTQEPSLTVSPGGTVTLTCRSSTGAVTTSNYANWVQQKPGQAPRGLIGGTNKRAPWTPARFSGSLLGGKAALTITGAQAEDEADYYCALWYSNLWVFGGGTKLTVLGGGGSGGGGQVQLVQSGAEVKKPGASVKVSCKASGYTFTSYWMQWVRQAPGQGLEWMGTIYPGDGDTRYTQKFKGRVTITADKSTSTAYMELSSLRSEDTAVYYCARRGIPRLWYFDVWGQGTTVTVSSGGCGGGKVAALKEKVAALKEKVAALKEKVAALKE heavy: EVQLQQSGAELVKPGASVKLSCTASGFNIKDTYIHFVRQRPEQGLEWIGRIDPANDNTLYASKFQGKATITADTSSNTAYMHLCSLTSGDTAVYYCGRGYGYYVFDHWGQGTTLTVSSASTKGPSVFPLAPSSKSTSGGTAALGCLVKDYFPEPVTVSWNSGALTSGVHTFPAVLQSSGLYSLSSVVTVPSSSLGTQTYICNVNHKPSNTKVDKRVEPKSCDKTHTCPPCPAPEAAGGPSVFLFPPKPKDTLMISRTPEVTCVVVDVSHEDPEVKFNWYVDGVEVHNAKTKPREEQYNSTYRVVSVLTVLHQDWLNGKEYKCKVSNKALPAPIEKTISKAKGQPREPQVYTLPPSREEMTKNQVSLSCAVKGFYPSDIAVEWESNGQPENNYKTTPPVLDSDGSFFLVSKLTVDKSRWQQGNVFSCSVMHEALHNRYTQKSLSLSPGK light: DVQINQSPSFLAASPGETITINCRTSRSISQYLAWYQEKPGKTNKLLIYSGSTLQSGIPSRFSGSGSGTDFTLTISGLEPEDFAMYYCQQHNENPLTFGAGTKLELRRTVAAPSVFIFPPSDEQLKSGTASVVCLLNNFYPREAKVQWKVDNALQSGNSQESVTEQDSKDSTYSLSSTLTLSKADYEKHKVYACEVTHQGLSSPVTKSFNRGEC							EC50 (nM) of killing, CD4+ effector cells, JIMT1-luc target cells, E:T 5:1 [1]: 0.0721 nM; EC50 (nM) of killing, CD8+ effector cells, JIMT1-luc target cells, E:T 5:1 [1]: 0.0054 nM; EC50 (nM) of killing, PanT effector cells, JIMT1-luc target cells, E:T 5:1 [1]: 0.0082 nM; EC50 (read off the curve) [2]: ~2 nM; EC50 (read off the curve) [3]: ~2 nM; LDH EC50 (pM), A498 cells [4]: 4 pM; LDH EC50 (pM), JIMT-1 cells [4]: 0.4 pM; Luciferase EC50 (pM), JIMT-1 cells [4]: 0.6 pM; EC50 (read off the curve) [5]: ~2 nM
HIV mAb 1/CD3 mAb 2/CD8 mAb 1 Tri-Specific Binding Molecule (other) chain 1: DIVMTQSPDSLAVSPGERATIHCKSSQTLLYSSNNRHSIAWYQQRPGQPPKLLLYWASMRLSGVPDRFSGSGSGTDFTLTINNLQAEDVAIYYCHQYSSHPPTFGHGTRVEIKGGGSGGGGEVQLVESGGGLVQPGGSLRLSCAASGFTFSTYAMNWVRQAPGKGLEWVGRIRSKYNNYATYYADSVKGRFTISRDDSKNSLYLQMNSLKTEDTAVYYCVRHGNFGNSYVSWFAYWGQGTLVTVSSASTKGEVAACEKEVAALEKEVAALEKEVAALEKGGGDKTHTCPPCPAPEAAGGPSVFLFPPKPKDTLMISRTPEVTCVVVDVSHEDPEVKFNWYVDGVEVHNAKTKPREEQYNSTYRVVSVLTVLHQDWLNGKEYKCKVSNKALPAPIEKTISKAKGQPREPQVYTLPPSREEMTKNQVSLWCLVKGFYPSDIAVEWESNGQPENNYKTTPPVLDSDGSFFLYSKLTVDKSRWQQGNVFSCSVMHEALHNHYTQKSLSLSPGK chain 2: QAVVTQEPSLTVSPGGTVTLTCRSSTGAVTTSNYANWVQQKPGQAPRGLIGGTNKRAPWTPARFSGSLLGGKAALTITGAQAEDEADYYCALWYSNLWVFGGGTKLTVLGGGGSGGGGQVQLVQSGGGVFKPGGSLRLSCEASGFTFTEYYMTWVRQAPGKGLEWLAYISKNGEYSKYSPSSNGRFTISRDNAKNSVFLQLDRLSADDTAVYYCARADGLTYFSELLQYIFDLWGQGARVTVSSASTKGKVAACKEKVAALKEKVAALKEKVAALKE heavy: EVQLQQSGAELVKPGASVKLSCTASGFNIKDTYIHFVRQRPEQGLEWIGRIDPANDNTLYASKFQGKATITADTSSNTAYMHLCSLTSGDTAVYYCGRGYGYYVFDHWGQGTTLTVSSASTKGPSVFPLAPSSKSTSGGTAALGCLVKDYFPEPVTVSWNSGALTSGVHTFPAVLQSSGLYSLSSVVTVPSSSLGTQTYICNVNHKPSNTKVDKRVEPKSCDKTHTCPPCPAPEAAGGPSVFLFPPKPKDTLMISRTPEVTCVVVDVSHEDPEVKFNWYVDGVEVHNAKTKPREEQYNSTYRVVSVLTVLHQDWLNGKEYKCKVSNKALPAPIEKTISKAKGQPREPQVYTLPPSREEMTKNQVSLSCAVKGFYPSDIAVEWESNGQPENNYKTTPPVLDSDGSFFLVSKLTVDKSRWQQGNVFSCSVMHEALHNRYTQKSLSLSPG light: DVQINQSPSFLAASPGETITINCRTSRSISQYLAWYQEKPGKTNKLLIYSGSTLQSGIPSRFSGSGSGTDFTLTISGLEPEDFAMYYCQQHNENPLTFGAGTKLELRRTVAAPSVFIFPPSDEQLKSGTASVVCLLNNFYPREAKVQWKVDNALQSGNSQESVTEQDSKDSTYSLSSTLTLSKADYEKHKVYACEVTHQGLSSPVTKSFNRGEC	0.36	0.00781	0.044	~0.8	0.00019	0.00029	
HIV mAb 2/CD3 mAb 2/CD8 mAb 1 Tri-Specific Binding Molecule (other) chain 1: QSALTQPPSASGSPGQSVTISCTGTSSDVGGYNYVSWYQHHPGKAPKLIISEVNNRPSGVPDRFSGSKSGNTASLTVSGLQAEDEAEYYCSSYTDIHNFVFGGGTKLTVLGGGSGGGGEVQLVESGGGLVQPGGSLRLSCAASGFTFSTYAMNWVRQAPGKGLEWVGRIRSKYNNYATYYADSVKGRFTISRDDSKNSLYLQMNSLKTEDTAVYYCVRHGNFGNSYVSWFAYWGQGTLVTVSSASTKGEVAACEKEVAALEKEVAALEKEVAALEKGGGDKTHTCPPCPAPEAAGGPSVFLFPPKPKDTLMISRTPEVTCVVVDVSHEDPEVKFNWYVDGVEVHNAKTKPREEQYNSTYRVVSVLTVLHQDWLNGKEYKCKVSNKALPAPIEKTISKAKGQPREPQVYTLPPSREEMTKNQVSLWCLVKGFYPSDIAVEWESNGQPENNYKTTPPVLDSDGSFFLYSKLTVDKSRWQQGNVFSCSVMHEALHNHYTQKSLSLSPGK chain 2: QAVVTQEPSLTVSPGGTVTLTCRSSTGAVTTSNYANWVQQKPGQAPRGLIGGTNKRAPWTPARFSGSLLGGKAALTITGAQAEDEADYYCALWYSNLWVFGGGTKLTVLGGGGSGGGGQVQLQESGPGLVKPSQTLSLSCTVSGGSSSSGAHYWSWIRQYPGKGLEWIGYIHYSGNTYYNPSLKSRITISQHTSENQFSLKLNSVTVADTAVYYCARGTRLRTLRNAFDIWGQGTLVTVSSASTKGKVAACKEKVAALKEKVAALKEKVAALKE heavy: EVQLQQSGAELVKPGASVKLSCTASGFNIKDTYIHFVRQRPEQGLEWIGRIDPANDNTLYASKFQGKATITADTSSNTAYMHLCSLTSGDTAVYYCGRGYGYYVFDHWGQGTTLTVSSASTKGPSVFPLAPSSKSTSGGTAALGCLVKDYFPEPVTVSWNSGALTSGVHTFPAVLQSSGLYSLSSVVTVPSSSLGTQTYICNVNHKPSNTKVDKRVEPKSCDKTHTCPPCPAPEAAGGPSVFLFPPKPKDTLMISRTPEVTCVVVDVSHEDPEVKFNWYVDGVEVHNAKTKPREEQYNSTYRVVSVLTVLHQDWLNGKEYKCKVSNKALPAPIEKTISKAKGQPREPQVYTLPPSREEMTKNQVSLSCAVKGFYPSDIAVEWESNGQPENNYKTTPPVLDSDGSFFLVSKLTVDKSRWQQGNVFSCSVMHEALHNRYTQKSLSLSPG light: DVQINQSPSFLAASPGETITINCRTSRSISQYLAWYQEKPGKTNKLLIYSGSTLQSGIPSRFSGSGSGTDFTLTISGLEPEDFAMYYCQQHNENPLTFGAGTKLELRRTVAAPSVFIFPPSDEQLKSGTASVVCLLNNFYPREAKVQWKVDNALQSGNSQESVTEQDSKDSTYSLSSTLTLSKADYEKHKVYACEVTHQGLSSPVTKSFNRGEC	0.45	0.0004	0.0015	~0.6	0.00032	0.00026	
